In patent US5786206:
Values belong to the substance of their own block, whether it stands above or below them.

Tests used:
[1] = target: apo A-I/B-100 fusion protein expressed by plasmid 137 (beta-galactosidase / apo A-I / apo B-100) (human); assay: ELISA, plate coated with 1/4 dilution of the 137 stock, HRPO-labeled AI-11 1:1000
[2] = target: apo A-I/B-100 fusion protein expressed by plasmid 137 (beta-galactosidase / apo A-I / apo B-100) (human); assay: ELISA, plate coated with 1/32 dilution of the 137 stock, HRPO-labeled AI-11 1:1000
[3] = target: control protein from cells containing plasmid pUR291 (beta-galactosidase without an apolipoprotein insert) (Escherichia coli (strain K12)) [β-galactosidase: P00722]; assay: ELISA, plate coated with 1/16 dilution of the pUR291 control stock, HRPO-labeled AI-11 1:1000
[4] = target: control protein from cells containing plasmid pUR291 (beta-galactosidase without an apolipoprotein insert) (Escherichia coli (strain K12)) [β-galactosidase: P00722]; assay: ELISA, plate coated with 1/8 dilution of the pUR291 control stock, HRPO-labeled AI-11 1:1000
[5] = target: apo A-I/B-100 fusion protein expressed by plasmid 137 (beta-galactosidase / apo A-I / apo B-100) (human); assay: ELISA, plate coated with 1/64 dilution of the 137 stock, HRPO-labeled AI-11 1:1000
[6] = target: apo A-I/B-100 fusion protein expressed by plasmid 137 (beta-galactosidase / apo A-I / apo B-100) (human); assay: ELISA, plate coated with 1/8 dilution of the 137 stock, HRPO-labeled AI-11 1:1000
[7] = target: apo A-I/B-100 fusion protein expressed by plasmid 137 (beta-galactosidase / apo A-I / apo B-100) (human); assay: ELISA, plate coated with 1/2 dilution of the 137 stock (0.95 ug/100 ul), HRPO-labeled AI-11 1:1000
[8] = target: control protein from cells containing plasmid pUR291 (beta-galactosidase without an apolipoprotein insert) (Escherichia coli (strain K12)) [β-galactosidase: P00722]; assay: ELISA, plate coated with 1/4 dilution of the pUR291 control stock, HRPO-labeled AI-11 1:1000
[9] = target: control protein from cells containing plasmid pUR291 (beta-galactosidase without an apolipoprotein insert) (Escherichia coli (strain K12)) [β-galactosidase: P00722]; assay: ELISA, plate coated with 1/64 dilution of the pUR291 control stock, HRPO-labeled AI-11 1:1000
[10] = target: control protein from cells containing plasmid pUR291 (beta-galactosidase without an apolipoprotein insert) (Escherichia coli (strain K12)) [β-galactosidase: P00722]; assay: ELISA, plate coated with 1/32 dilution of the pUR291 control stock, HRPO-labeled AI-11 1:1000
[11] = target: apo A-I/B-100 fusion protein expressed by plasmid 137 (beta-galactosidase / apo A-I / apo B-100) (human); assay: ELISA, plate coated with 1/16 dilution of the 137 stock, HRPO-labeled AI-11 1:1000
[12] = target: control protein from cells containing plasmid pUR291 (beta-galactosidase without an apolipoprotein insert) (Escherichia coli (strain K12)) [β-galactosidase: P00722]; assay: ELISA, plate coated with 1/2 dilution of the pUR291 control stock (395.0 ug/100 ul), HRPO-labeled AI-11 1:1000
[13] = target: apo A-I/B-100 fusion protein expressed by plasmid 137 (beta-galactosidase / apo A-I / apo B-100) (human); assay: ELISA, plate coated with 1/16 dilution of the 137 stock, HRPO-labeled MB47 1:1000
[14] = target: apo A-I/B-100 fusion protein expressed by plasmid 137 (beta-galactosidase / apo A-I / apo B-100) (human); assay: ELISA, plate coated with 1/2 dilution of the 137 stock (0.95 ug/100 ul), HRPO-labeled MB47 1:1000
[15] = target: control protein from cells containing plasmid pUR291 (beta-galactosidase without an apolipoprotein insert) (Escherichia coli (strain K12)) [β-galactosidase: P00722]; assay: ELISA, plate coated with 1/16 dilution of the pUR291 control stock, HRPO-labeled MB47 1:1000
[16] = target: apo A-I/B-100 fusion protein expressed by plasmid 137 (beta-galactosidase / apo A-I / apo B-100) (human); assay: ELISA, plate coated with 1/4 dilution of the 137 stock, HRPO-labeled MB47 1:1000
[17] = target: apo A-I/B-100 fusion protein expressed by plasmid 137 (beta-galactosidase / apo A-I / apo B-100) (human); assay: ELISA, plate coated with 1/64 dilution of the 137 stock, HRPO-labeled MB47 1:1000
[18] = target: control protein from cells containing plasmid pUR291 (beta-galactosidase without an apolipoprotein insert) (Escherichia coli (strain K12)) [β-galactosidase: P00722]; assay: ELISA, plate coated with 1/8 dilution of the pUR291 control stock, HRPO-labeled MB47 1:1000
[19] = target: apo A-I/B-100 fusion protein expressed by plasmid 137 (beta-galactosidase / apo A-I / apo B-100) (human); assay: ELISA, plate coated with 1/32 dilution of the 137 stock, HRPO-labeled MB47 1:1000
[20] = target: control protein from cells containing plasmid pUR291 (beta-galactosidase without an apolipoprotein insert) (Escherichia coli (strain K12)) [β-galactosidase: P00722]; assay: ELISA, plate coated with 1/32 dilution of the pUR291 control stock, HRPO-labeled MB47 1:1000
[21] = target: apo A-I/B-100 fusion protein expressed by plasmid 137 (beta-galactosidase / apo A-I / apo B-100) (human); assay: ELISA, plate coated with 1/8 dilution of the 137 stock, HRPO-labeled MB47 1:1000
[22] = target: control protein from cells containing plasmid pUR291 (beta-galactosidase without an apolipoprotein insert) (Escherichia coli (strain K12)) [β-galactosidase: P00722]; assay: ELISA, plate coated with 1/2 dilution of the pUR291 control stock (395.0 ug/100 ul), HRPO-labeled MB47 1:1000
[23] = target: control protein from cells containing plasmid pUR291 (beta-galactosidase without an apolipoprotein insert) (Escherichia coli (strain K12)) [β-galactosidase: P00722]; assay: ELISA, plate coated with 1/4 dilution of the pUR291 control stock, HRPO-labeled MB47 1:1000
[24] = target: control protein from cells containing plasmid pUR291 (beta-galactosidase without an apolipoprotein insert) (Escherichia coli (strain K12)) [β-galactosidase: P00722]; assay: ELISA, plate coated with 1/64 dilution of the pUR291 control stock, HRPO-labeled MB47 1:1000

Optical density at 490 nm [1]: 0.6 OD 490 nm
Optical density at 490 nm [2]: 0.14 OD 490 nm
Optical density at 490 nm [3]: 0.07 OD 490 nm
Optical density at 490 nm [4]: 0.08 OD 490 nm
Optical density at 490 nm [5]: 0.12 OD 490 nm
Optical density at 490 nm [6]: 0.2 OD 490 nm
Optical density at 490 nm [7]: 1 OD 490 nm
Optical density at 490 nm [8]: 0.08 OD 490 nm
Optical density at 490 nm [9]: 0.04 OD 490 nm
Optical density at 490 nm [10]: 0.05 OD 490 nm
Optical density at 490 nm [11]: 0.14 OD 490 nm
Optical density at 490 nm [12]: 0.1 OD 490 nm
Substance: monoclonal antibody AI-11, secreted by hybridoma AI-11 (ATCC HB 9201)

Optical density at 490 nm [13]: 0.1 OD 490 nm
Optical density at 490 nm [14]: 1.3 OD 490 nm
Optical density at 490 nm [15]: 0.04 OD 490 nm
Optical density at 490 nm [16]: 0.46 OD 490 nm
Optical density at 490 nm [17]: 0.08 OD 490 nm
Optical density at 490 nm [18]: 0.1 OD 490 nm
Optical density at 490 nm [19]: 0.1 OD 490 nm
Optical density at 490 nm [20]: 0.02 OD 490 nm
Optical density at 490 nm [21]: 0.14 OD 490 nm
Optical density at 490 nm [22]: 0.1 OD 490 nm
Optical density at 490 nm [23]: 0.12 OD 490 nm
Optical density at 490 nm [24]: 0.01 OD 490 nm
Substance: monoclonal antibody MB47, secreted by hybridoma MB47 (ATCC HB 8746)
